Measurements published in patent US20220362357A1, “Synergistic Combinations of Amino Acid Depletion Agent Sensitizers (AADAS) and Amino Acid Depletion Agents (AADA), and Therapeutic Methods of Use Thereof” (STICHTING RADBOUD UNIVERSITAIR MEDISCH CENTRUM, priority 2018, published 2022).

Columns and labels:
Assay type in all cases: cell-based, human
PDX m3810 = assay: PDX ALL cells co-cultured on hTERT MSCs, ASNase x ibrutinib dilution matrix, microscopy; details: m3810 (7 d), ibrutinib B0=0 to B9=100
Method: (§1) After 2-4 months these mice developed full blown leukemia with an immunophenotype and genetic composition that in the large majority of cases is identical to the original material at the time of injection.
(§2) Briefly, hTERT immortalized MSCs were seeded in either a 384 wells format (microscopy) or a 96 wells format (7AAD staining) and allowed to settle for 24 hours prior to the addition of ALL xenografts. […] After 3 and 7 days of incubation, cell death was analyzed using microscopy using live cells staining or flowcytometry using 7AAD to discriminate between live or dead cells.

PDX m4206 = assay: as above; details: ibrutinib B0=0 to B9=100
Method: as §1, §2

PDX m764 = assay: as above; details: m764 (3 d), ibrutinib B0=0 to B9=100
Method: as §1, §2

PDX m838 = assay: as above; details: m838 (3 d), ibrutinib B0=0 to B9=100
Method: as §1, §2

PDX m877 = assay: as above; details: m877 (3 d), ibrutinib B0=0 to B9=100
Method: as §1, §2

Nalm6, Sem and Reh cells = assay: ASNase and ibrutinib 7 day treatment of ALL cell lines: SubG1, PARP cleavage, amine staining, colony assay; details: 7 days; 1 IU/ml ASNase, ibrutinib 1 or 10 μM; FIGS. 4D, 4E, 4F & 4H
Method: BTK inhibition. […] Cell viability was then measured by cell cycle distribution, (FIGS. 4C & 4D), and by blotting for the apoptosis marker PARP and calculating the ratio between cleaved and uncleaved PARP protein or (FIG. 4E) by amine staining (FIG. 4F).

B1: ASNase: native E. coli ASNase (NCBI WP_000394140.1), used in the in vitro studies (protein, UniProt P00805 23-348, looked up)
L-asparaginase 2: LPNITILATGGTIAGGGDSATKSNYTVGKVGVENLVNAVPQLKDIANVKGEQVVNIGSQDMNDNVWLTLAKKINTDCDKTDGFVITHGTDTMEETAYFLDLTVKCDKPVVMVGAMRPSTSMSADGPFNLYNAVVTAADKASANRGVLVVMNDTVLDGRDVTKTNTTDVATFKSVNYGPLGYIHNGKIDYQRTPARKHTSDTPFDVSKLNELPKVGIVYNYANASDLPAKALVDAGYDGIVSAGVGNGNLYKSVFDTLATAAKTGTAVVRSSRVPTGATTQDAEVDDAKYGFVASGTLNPQKARVLLQLALTQTKDPQQIQQIFNQY
PDX m3810; ASNase A1=0.01
  live cells by automated microscopy (table names no quantity): 1776
PDX m3810; ASNase A2=0.03
  live cells by automated microscopy (table names no quantity): 1752
PDX m3810; ASNase A3=0.1
  live cells by automated microscopy (table names no quantity): 1563
PDX m3810; ASNase A4=0.3
  live cells by automated microscopy (table names no quantity): 1519
PDX m3810; ASNase A5=1
  live cells by automated microscopy (table names no quantity): 1136
PDX m3810; ASNase A6=3
  live cells by automated microscopy (table names no quantity): 1251
PDX m3810; ASNase A7=10
  live cells by automated microscopy (table names no quantity): 686
PDX m3810; ASNase A8=32
  live cells by automated microscopy (table names no quantity): 87
PDX m3810; ASNase A9 (A=100)
  live cells by automated microscopy (table names no quantity): 4
PDX m4206; m4206 (3 d), ASNase A1=0.01
  live cells by automated microscopy (table names no quantity): 3112
PDX m4206; m4206 (3 d), ASNase A2=0.03
  live cells by automated microscopy (table names no quantity): 2484
PDX m4206; m4206 (3 d), ASNase A3=0.1
  live cells by automated microscopy (table names no quantity): 3106
PDX m4206; m4206 (3 d), ASNase A4=0.3
  live cells by automated microscopy (table names no quantity): 2323
PDX m4206; m4206 (3 d), ASNase A5=1
  live cells by automated microscopy (table names no quantity): 2141
PDX m4206; m4206 (3 d), ASNase A6=3
  live cells by automated microscopy (table names no quantity): 2304
PDX m4206; m4206 (3 d), ASNase A7=10
  live cells by automated microscopy (table names no quantity): 1979
PDX m4206; m4206 (3 d), ASNase A8=32
  live cells by automated microscopy (table names no quantity): 301
PDX m4206; m4206 (3 d), ASNase A9 (A=100)
  live cells by automated microscopy (table names no quantity): 69
PDX m4206; m4206 (7 d), ASNase A1=0.01
  live cells by automated microscopy (table names no quantity): 56
PDX m4206; m4206 (7 d), ASNase A2=0.03
  live cells by automated microscopy (table names no quantity): 52
PDX m4206; m4206 (7 d), ASNase A3=0.1
  live cells by automated microscopy (table names no quantity): 86
PDX m4206; m4206 (7 d), ASNase A4=0.3
  live cells by automated microscopy (table names no quantity): 37
PDX m4206; m4206 (7 d), ASNase A5=1
  live cells by automated microscopy (table names no quantity): 83
PDX m4206; m4206 (7 d), ASNase A6=3
  live cells by automated microscopy (table names no quantity): 87
PDX m4206; m4206 (7 d), ASNase A7=10
  live cells by automated microscopy (table names no quantity): 68
PDX m4206; m4206 (7 d), ASNase A8=32
  live cells by automated microscopy (table names no quantity): 24
PDX m4206; m4206 (7 d), ASNase A9 (A=100)
  live cells by automated microscopy (table names no quantity): 35
PDX m764; ASNase A1=0.01
  live cells by automated microscopy (table names no quantity): 546
PDX m764; ASNase A2=0.03
  live cells by automated microscopy (table names no quantity): 1126
PDX m764; ASNase A3=0.1
  live cells by automated microscopy (table names no quantity): 109
PDX m764; ASNase A4=0.3
  live cells by automated microscopy (table names no quantity): 250
PDX m764; ASNase A5=1
  live cells by automated microscopy (table names no quantity): 915
PDX m764; ASNase A6=3
  live cells by automated microscopy (table names no quantity): 887
PDX m764; ASNase A7=10
  live cells by automated microscopy (table names no quantity): 594
PDX m764; ASNase A8=32
  live cells by automated microscopy (table names no quantity): 157
PDX m764; ASNase A9 (A=100)
  live cells by automated microscopy (table names no quantity): 2
PDX m838; ASNase A1=0.01
  live cells by automated microscopy (table names no quantity): 2793
PDX m838; ASNase A2=0.03
  live cells by automated microscopy (table names no quantity): 3003
PDX m838; ASNase A3=0.1
  live cells by automated microscopy (table names no quantity): 3109
PDX m838; ASNase A4=0.3
  live cells by automated microscopy (table names no quantity): 2839
PDX m838; ASNase A5=1
  live cells by automated microscopy (table names no quantity): 2454
PDX m838; ASNase A6=3
  live cells by automated microscopy (table names no quantity): 3049
PDX m838; ASNase A7=10
  live cells by automated microscopy (table names no quantity): 2431
PDX m838; ASNase A8=32
  live cells by automated microscopy (table names no quantity): 175
PDX m838; ASNase A9 (A=100)
  live cells by automated microscopy (table names no quantity): 18
PDX m877; ASNase A1=0.01
  live cells by automated microscopy (table names no quantity): 5090
PDX m877; ASNase A2=0.03
  live cells by automated microscopy (table names no quantity): 4877
PDX m877; ASNase A3=0.1
  live cells by automated microscopy (table names no quantity): 4455
PDX m877; ASNase A4=0.3
  live cells by automated microscopy (table names no quantity): 4789
PDX m877; ASNase A5=1
  live cells by automated microscopy (table names no quantity): 5008
PDX m877; ASNase A6=3
  live cells by automated microscopy (table names no quantity): 5125
PDX m877; ASNase A7=10
  live cells by automated microscopy (table names no quantity): 4350
PDX m877; ASNase A8=32
  live cells by automated microscopy (table names no quantity): 1205
PDX m877; ASNase A9 (A=100)
  live cells by automated microscopy (table names no quantity): 2
Nalm6, Sem and Reh cells
  apoptotic killing efficacy: relatively small effect
